Consider 29 molecules from US7056679 (ANTYRA, dated 2006).

Common to all, as to assay: phage ELISA
(In an ELISA, binding on a coated surface is turned into a signal by an enzyme label.)

The target in assay [1] is T1, DGI-2 polypeptide (UniProt Q15004 1-111, limits assumed).
T1 construct: Soluble recombinant protein coated at 500 ng/well; vector tag of pIVEX2.3-MCS not described for this construct; also called KIAA0101
T1 sequence (looked up): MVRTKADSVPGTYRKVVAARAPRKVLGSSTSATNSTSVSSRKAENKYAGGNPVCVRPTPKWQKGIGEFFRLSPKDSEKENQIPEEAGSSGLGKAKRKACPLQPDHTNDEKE
As to the method: (§1) For analysis of individual target binders, colonies were picked and phage prepared as described above using helper phage, M13KO7. Ninety-six-well microtiter plates were coated with 500 ng/well of specific target protein, 500 ng/well lactate dehydrogenase (LDH) irrelevant or non-specific target, 500 ng/well of positive control antibody raised against ETAG, and negative control of non-fat milk powder-PBS 2% at 4° C. overnight. Plates were then blocked with 350 microliters/well PBS containing 2% non-fat milk for 1 hr at room temperature. One hundred microliters per well of phage from isolated clones were added and plates were incubated at room temperature for 2 hr after centrifuging samples for 20 minutes at 3500 rpm at 4° C. The phage solution was then removed, and the wells were washed three times with PBS at room temperature. Antibody raised against M13 conjugated to horseradish peroxidase (Pharmacia) was diluted 1:3000 in PBS-Tween and added to each well (100 µl/well). Incubation was for 1 hr at room temperature, followed by washing with PBS-(0.5%) Tween 3 times as described. Color was developed by addition of ABTS solution (100 µl/well; Boehringer, Indianapolis, Ind.). Plates were analyzed at 405 nm. A clone was considered "positive" if the $A405$ of the well was $\geq$2-fold over background.

The target of assay [2] is T2, lactate dehydrogenase (LDH).
T2 construct: Coated at 500 ng/well as non-specific target; also called LDH polypeptide
As to the method:
as §1

Assay [3] has as its target T3, antibody raised against ETAG.
T3 construct: Coated at 500 ng/well; also called E-tag antibody
As to the method: as §1

Turning to SAFGCPLPRALGGGGARFYAAAAGAPVPYPDPLEPRP [DGI-2-20F-PP-E11], in assay [1], the “DGI-2 (OD)” value amounted to 2 OD and the DGI-2/LDH is 2.2 ratio. Besides, in assay [2], the “LDH (OD)” value is 0.9 OD. Further, in assay [3], the “ETAG (OD)” value came to 15.2 OD.
For TPVAISIPAGVCSTSVCGRDAAAGAPVPYPDPLEPRP [DGI-2-20F-PP-C11], in assay [1], the “DGI-2 (OD)” value stood at 2.4 OD and the DGI-2/LDH turned out to be 2.6 ratio. For the same molecule, the “LDH (OD)” value in assay [2] amounted to 0.9 OD. Besides, the “ETAG (OD)” value in assay [3] turned out to be 3.2 OD.
The corresponding values for SRGMAEAQFSAWPVLAVFPLAAAGAPVPYPDPLEPRP [DGI-2-20F-PP-H8] are 1.6 OD, 1.9 ratio, 0.9 OD and 32.4 OD.
The corresponding values for SVSGGGVFGTGGRVRHQVSGAAAGAPVPYPDPLEPRP [DGI-2-20F-PP-C5] are 2.2 OD, 2.4 ratio, 0.9 OD and 33.9 OD.
The corresponding values for PVYRVAMCRISVGCSAGAWFAAAGAPVPYPDPLEPRP [DGI-2-20F-PP-C12] are 2.5 OD, 2.9 ratio, 0.9 OD and 36.4 OD.
Consider VTGTRFRGFAVACVRMGTWHAAAGAPVPYPDPLEPRP [DGI-2-20F-PP-F2], for which, in assay [1], the “DGI-2 (OD)” value amounted to 2.4 OD and the DGI-2/LDH is 2.5 ratio. For the same molecule, in assay [2], the “LDH (OD)” value was found to be 1 OD. Besides, the “ETAG (OD)” value in assay [3] turned out to be 1.9 OD.
In the same order, the values of VQSGRDLGGLLRGGTGTEASPAAAGAPVPYPDPLEPRP [DGI-2-20F-PP-D3] are 2.2 OD, 2.4 ratio, 0.9 OD and 15 OD.
The corresponding values for DRHRAFVAEGLDGFRHSTGVAAAGAPVPYPDPLEPRP [DGI-2-20F-PP-D4] are 2.6 OD, 2.3 ratio, 1.1 OD and 44 OD.
For the molecule SLLCVVCRPVSGGRALGGVPAAAGAPVPYPDPLEPRP [DGI-2-20F-PP-B42], in assay [1], the “DGI-2 (OD)” value came to 2.4 OD and the DGI-2/LDH is 2.5 ratio. Also, the “LDH (OD)” value in assay [2] turned out to be 1 OD. Also, the “ETAG (OD)” value in assay [3] is 21.5 OD.
Consider LLLPVRWRDAQPRSLLMEWIAAAGAPVPYPDPLEPRP [DGI-2-20F-PP-F8], for which, in assay [1], the “DGI-2 (OD)” value turned out to be 2 OD and the DGI-2/LDH stood at 1.9 ratio. Further, the “LDH (OD)” value in assay [2] is 1.1 OD. Moreover, the “ETAG (OD)” value in assay [3] was 7.6 OD.
Take RISVGQCGTSRCGGGRRGGGAAAGAPVPYPDPLEPRP [DGI-2-20F-PP-D1]: in assay [1], the “DGI-2 (OD)” value was 2 OD and the DGI-2/LDH came to 1.9 ratio. In assay [2], the “LDH (OD)” value came to 1.1 OD. The “ETAG (OD)” value in assay [3] is 3 OD.
In the same order, the values of MGADTCMGGKMPFDQMFGAVAAAGAPVPYPDPLEPRP [DGI-2-20F-PP-E10] are 2 OD, 1.7 ratio, 1.2 OD and 44.6 OD.
The corresponding values for VSGVPDGSMRAAQLASGYWCAAAGAPVPYPDPLEPRP [DGI-2-20F-PP-G2] are 2.4 OD, 2.1 ratio, 1.1 OD and 5.6 OD.
In the same order, the values of FGRDGDGIQRRQGGFSWVGDRAAAGAPVPYPDPLEPRP [DGI-2-20F-PP-E2] are 1.7 OD, 2.4 ratio, 0.7 OD and 11.6 OD.
In the case of VGQSSGDARPLANLFVFPFVAAAGAPVPYPDPLEPRP [DGI-2-20F-PP-F12], in assay [1], the “DGI-2 (OD)” value amounted to 2.1 OD and the DGI-2/LDH came out at 2.3 ratio. In addition, the “LDH (OD)” value in assay [2] amounted to 0.9 OD. Besides, the “ETAG (OD)” value in assay [3] turned out to be 47.6 OD.
In the same order, the values of EGQRVVFLFGALVAGLCWRDRAAAGAPVPYPDPLEPRP [DGI-2-20F-PP-F3] are 2.6 OD, 2.2 ratio, 1.1 OD and 18.7 OD.
On to KVWGCGARRGWERLGHLNQVAAAGAPVPYPDPLEPRP [DGI-2-20F-PP-B10], for which, in assay [1], the “DGI-2 (OD)” value is 1.9 OD and the DGI-2/LDH came to 2.4 ratio. For the same molecule, the “LDH (OD)” value in assay [2] is 0.8 OD. Besides, the “ETAG (OD)” value in assay [3] is 27.1 OD.
In the same order, the values of FRVALLSVSAGPCEGSGNTAAAGAPVPYPDPLEPRP [DGI-2-20F-PP-H7] are 1.8 OD, 2.1 ratio, 0.8 OD and 3.7 OD.
Turning to RQRSGGRWVVDRVTRVASTSPAAAGAPVPYPDPLEPRP [DGI-2-20F-PP-B12], in assay [1], the “DGI-2 (OD)” value amounted to 2.3 OD and the DGI-2/LDH came out at 2.2 ratio. For the same molecule, the “LDH (OD)” value in assay [2] came out at 1.1 OD. In assay [3], the “ETAG (OD)” value was 1.9 OD.
For the molecule RRFVRCSVPVALRSAVPVSVAAAGAPVPYPDPLEPRP [DGI-2-20F-PP-A10], in assay [1], the “DGI-2 (OD)” value was determined as 2.4 OD and the DGI-2/LDH was determined as 2.4 ratio. The “LDH (OD)” value in assay [2] worked out at 1 OD. Moreover, in assay [3], the “ETAG (OD)” value amounted to 16.3 OD.
In the same order, the values of CCAWNGVGVGGLGWRVVVGPAAAGAPVPYPDPLEPRP [DGI-2-20F-PP-H4] are 2.1 OD, 2.2 ratio, 1 OD and 32.9 OD.
Regarding SVTISTSCRTGCPAGYLRRDAAAGAPVPYPDPLEPRP [DGI-2-20F-PP-D2], in assay [1], the “DGI-2 (OD)” value amounted to 2.2 OD and the DGI-2/LDH was found to be 3.1 ratio. The “LDH (OD)” value in assay [2] came out at 0.7 OD. In assay [3], the “ETAG (OD)” value was 30.8 OD.
As to FGSTAYADMLSQFRKFAMNISAAAGAPVPYPDPLEPRP [DGI-2-20F-PP-E1], in assay [1], the “DGI-2 (OD)” value was determined as 1.8 OD and the DGI-2/LDH came to 1.9 ratio. The “LDH (OD)” value in assay [2] came out at 1 OD. In addition, in assay [3], the “ETAG (OD)” value worked out at 33.4 OD.
In the same order, the values of VVGYAQGDGLEGGLGSSRDGSAAAGAPVPYPDPLEPRP [DGI-2-20F-PP-D8] are 2.3 OD, 2.2 ratio, 1.1 OD and 2.6 OD.
For the molecule RDHRYVGWGRATFRHDQSVWAAAGAPVPYPDPLEPRP [DGI-2-20F-PP-H1], in assay [1], the “DGI-2 (OD)” value stood at 1.7 OD and the DGI-2/LDH was 1.4 ratio. The “LDH (OD)” value in assay [2] was 1.2 OD. Further, the “ETAG (OD)” value in assay [3] is 1.4 OD.
In the same order, the values of GGSLPVKSGQLVTCCTSKGGAAAGAPVPYPDPLEPRP [DGI-2-20F-PP-F5] are 2.3 OD, 2.5 ratio, 0.9 OD and 16.3 OD.
As to LFRFSGTGMASLPCVGWHLVAAAGAPVPYPDPLEPRP [DGI-2-20F-PP-B6], in assay [1], the “DGI-2 (OD)” value amounted to 2.5 OD and the DGI-2/LDH stood at 2.6 ratio. In addition, in assay [2], the “LDH (OD)” value is 1 OD. Moreover, the “ETAG (OD)” value in assay [3] was 37 OD.
Regarding GASRVVDVGWRFWGKLWQRSAAAGAPVPYPDPLEPRP [DGI-2-20F-PP-G5], in assay [1], the “DGI-2 (OD)” value was 2.4 OD and the DGI-2/LDH is 2 ratio. In addition, in assay [2], the “LDH (OD)” value came out at 1.2 OD. Besides, the “ETAG (OD)” value in assay [3] is 27.7 OD.
The corresponding values for CYLSRLFRSGQGIGQFGHVEAAAGAPVPYPDPLEPRP [DGI-2-20F-PP-A82] are 2.5 OD, 2.3 ratio, 1.1 OD and 16.5 OD.
